According to patent publication US11833164B2, “Methods of treating Fabry disease in patients having a mutation in the GLA gene” (Amicus Therapeutics, Inc., priority 2019, dated 2023):
Positions count from the first letter of the chain named. Names and notes keep the numbering of the source.

B1: Y329N (protein)
chain: MQLRNPELHLGCALALRFLALVSWDIPGARALDNGLARTPTMGWLHWERFMCNLDCQEEPDSCISEKLFMEMAELMVSEGWKDAGYEYLCIDDCWMAPQRDSEGRLQADPQRFPHGIRQLANYVHSKGLKLGIYADVGNKTCAGFPGSFGYYDIDAQTFADWGVDLLKFDGCYCDSLENLADGYKHMSLALNRTGRSIVYSCEWPLYMWPFQKPNYTEIRQYCNHWRNFADIDDSWKSIKSILDWTSFNQERIVDVAGPGGWNDPDMLVIGNFGLSWNQQVTQMALWAIMAAPLFMSNDLRHISPQAKALLQDKDVIAINQDPLGKQGNQLRQGDNFEVWERPLSGLAWAVAMINRQEIGGPRSYTIAVASLGKGVACNPACFITQLLPVKRKLGFYEWTSRLRSHINPTGTVLLQLENTMQMSLKDLL
B2: G334R (protein)
chain: B1 chain with N329Y, G334R
B3: R332S (protein)
chain: B1 chain with N329Y, R332S
B4: L331H (protein)
chain: B1 chain with N329Y, L331H
B5: D335V (protein)
chain: B1 chain with N329Y, D335V
B6: L331P (protein)
chain: B1 chain with N329Y, L331P
B7: L331R (protein)
chain: B1 chain with N329Y, L331R
B8: D335E (protein)
chain: B1 chain with N329Y, D335E
B9: R332G (protein)
chain: B1 chain with N329Y, R332G
B10: G334V (protein)
chain: B1 chain with N329Y, G334V
B11: R332T (protein)
chain: B1 chain with N329Y, R332T
B12: Q330H (protein)
chain: B1 chain with N329Y, Q330H
B13: D335G (protein)
chain: B1 chain with N329Y, D335G
B14: Q333L (protein)
chain: B1 chain with N329Y, Q333L
B15: Q333P (protein)
chain: B1 chain with N329Y, Q333P
B16: D335A (protein)
chain: B1 chain with N329Y, D335A
B17: Q330E (protein)
chain: B1 chain with N329Y, Q330E
B18: Q333E (protein)
chain: B1 chain with N329Y, Q333E
B19: L331V (protein)
chain: B1 chain with N329Y, L331V
B20: R332I (protein)
chain: B1 chain with N329Y, R332I
B21: Q330K (protein)
chain: B1 chain with N329Y, Q330K

system: mutant form of α-Gal A expressed in HEK-293 cells; assay: HEK assay (GLP HEK / Migalastat Amenability Assay): α-Gal A activity in lysates of transiently transfected HEK-293 cells incubated with or without 10 μM migalastat; format: cell-based, human; details: 10 μM migalastat versus baseline
Method in brief: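 HEK-293 cells transiently transfected with mutant α-Gal A and incubated with or without 10 μM migalastat; lysate activity given as nmol free 4-MU released per mg protein per hour. Values are mean±SEM.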

Row | Molecule | Absolute increase (% WT) | Relative increase
1 | B1 | 15.6 | 1.7
2 | B2 | 17.5 | 1.2
3 | B3 | 20.5 | 1.2
4 | B4 | 25.9 | 1.6
5 | B5 | 19.4 | 2.1
6 | B6 | 3.1 | 6.5
7 | B7 | 23.3 | 1.6
8 | B8 | 17.7 | 1.3
9 | B9 | 23.4 | 1.3
10 | B10 | 13.7 | 1.2
11 | B11 | 36.2 | 1.5
12 | B12 | 40.8 | 2.2
13 | B13 | 15.7 | 1.3
14 | B14 | 24.7 | 1.3
15 | B15 | 31.0 | 1.9
16 | B16 | 27.7 | 1.6
17 | B17 | 19.9 | 1.7
18 | B18 | 23.5 | 1.3
19 | B19 | 28.0 | 1.3
20 | B20 | 43.2 | 1.7
21 | B21 | 21.1 | 1.3

same assay, conditions: absence of migalastat; percentage of baseline wild-type α-Gal A activity; mean ± SEM

Row | Molecule | Baseline α-Gal A activity (% WT)
22 | B1 | 21.8 ± 1.5
23 | B2 | 58.9 ± 4.6
24 | B3 | 87.6 ± 6.6
25 | B4 | 42 ± 3.2
26 | B5 | 18.1 ± 0.6
27 | B6 | 0.6 ± 0.1
28 | B7 | 33.2 ± 1.5
29 | B8 | 68.7 ± 4.8
30 | B9 | 78.8 ± 2.7
31 | B10 | 68.4 ± 3.2
32 | B11 | 73.3 ± 2.9
33 | B12 | 33.1 ± 2.8
34 | B13 | 51.3 ± 2.8
35 | B14 | 68.6 ± 2.9
36 | B15 | 30.3 ± 1.7
37 | B16 | 57.9 ± 3
38 | B17 | 26.4 ± 1.5
39 | B18 | 77.8 ± 5.3
40 | B19 | 89.4 ± 4.5
41 | B20 | 63.3 ± 4.5
42 | B21 | 71 ± 2.7

same assay, conditions: lysates of HEK-293 cells transiently transfected with the mutant form, incubated 5 days in absence of migalastat; mean ± SEM

Row | Molecule | Baseline α-Gal A activity [nmol/mg/h]
43 | B1 | 6448 ± 436
44 | B2 | 25886 ± 3237
45 | B3 | 33936 ± 2528
46 | B4 | 11743 ± 634
47 | B5 | 7938 ± 336
48 | B6 | 157 ± 20
49 | B7 | 9725 ± 634
50 | B8 | 30532 ± 1962
51 | B9 | 33043 ± 1431
52 | B10 | 31991 ± 2390
53 | B11 | 26141 ± 1254
54 | B12 | 9296 ± 649
55 | B13 | 22766 ± 1355
56 | B14 | 25450 ± 2094
57 | B15 | 11819 ± 1039
58 | B16 | 21055 ± 1662
59 | B17 | 7500 ± 345
60 | B18 | 30291 ± 2094
61 | B19 | 25163 ± 801
62 | B20 | 24614 ± 1678
63 | B21 | 20289 ± 720

same assay, conditions: lysates of HEK-293 cells transiently transfected with the mutant form, incubated 5 days with 10 μM migalastat; mean ± SEM

Row | Molecule | 10 μM migalastat α-Gal A activity [nmol/mg/h]
64 | B1 | 11035 ± 429
65 | B2 | 31174 ± 2016
66 | B3 | 41700 ± 2778
67 | B4 | 19003 ± 791
68 | B5 | 16557 ± 929
69 | B6 | 1029 ± 32
70 | B7 | 15841 ± 639
71 | B8 | 39124 ± 2722
72 | B9 | 42737 ± 1959
73 | B10 | 38301 ± 2744
74 | B11 | 39363 ± 2176
75 | B12 | 20752 ± 592
76 | B13 | 30341 ± 3325
77 | B14 | 33727 ± 1965
78 | B15 | 22746 ± 1255
79 | B16 | 33829 ± 4641
80 | B17 | 13086 ± 589
81 | B18 | 38709 ± 2428
82 | B19 | 33050 ± 967
83 | B20 | 41550 ± 2461
84 | B21 | 26149 ± 1074

same assay, conditions: with 10 μM migalastat, 5 days; percentage of baseline wild-type α-Gal A activity; mean ± SEM

Row | Molecule | 10 μM migalastat α-Gal A activity (% WT)
85 | B1 | 37.4 ± 1.2
86 | B2 | 76.4 ± 2.7
87 | B3 | 108.1 ± 8.4
88 | B4 | 67.9 ± 4.3
89 | B5 | 37.5 ± 1.6
90 | B6 | 3.7 ± 0.2
91 | B7 | 56.5 ± 3.2
92 | B8 | 86.5 ± 4.5
93 | B9 | 102.3 ± 4.6
94 | B10 | 82.1 ± 3.8
95 | B11 | 109.5 ± 4.7
96 | B12 | 73.9 ± 3.6
97 | B13 | 67 ± 5.6
98 | B14 | 93.3 ± 4.1
99 | B15 | 61.3 ± 3.9
100 | B16 | 85.6 ± 6.9
101 | B17 | 46.4 ± 2.6
102 | B18 | 101.3 ± 7.6
103 | B19 | 117.4 ± 5.6
104 | B20 | 106.6 ± 6.4
105 | B21 | 92.1 ± 4.2
